Test results published in article PMC10154249, “Unique progerin C-terminal peptide ameliorates Hutchinson–Gilford progeria syndrome phenotype by rescuing BUBR1” (Nature Aging, 2023).

B1: progerin (protein)
chain: METPSQRRATRSGAQASSTPLSPTRITRLQEKEDLQELNDRLAVYIDRVRSLETENAGLRLRITESEEVVSREVSGIKAAYEAELGDARKTLDSVAKERARLQLELSKVREEFKELKARNTKKEGDLIAAQARLKDLEALLNSKEAALSTALSEKRTLEGELHDLRGQVAKLEAALGEAKKQLQDEMLRRVDAENRLQTMKEELDFQKNIYSEELRETKRRHETRLVEIDNGKQREFESRLADALQELRAQHEDQVEQYKKELEKTYSAKLDNARQSAERNSNLVGAAHEELQQSRIRIDSLSAQLSQLQKQLAAKEAKLRDLEDSLARERDTSRRLLAEKEREMAEMRARMQQQLDEYQELLDIKLALDMEIHAYRKLLEGEEERLRLSPSPTSQRSRGRASSHSSQTQGGGSVTKKRKLESTESRSSFSQHARTSGRVAVEEVDEEGKFVRLRNKSNEDQSMGNWQIKRQNGDDPLLTYRFPPKFTLKAGQVVTIWAAGAGATHSPPTDLVWKAQNTWGCGNSLRTALINSTGEEVAMRKLVRSVTVVEDDEDEDGDDLLHHHHGSHCSSSGDPAEYNLRSRTVLCGTCGQPADKASASGSGAQSPQNCSIM
modifications: left off: GST, end not stated, kept
B2: mVenus-progerin (protein)
chain: B1 chain
modifications: left off: mVenus, end not stated, kept

Assays:
[1] = tested on: BUBR1 kinetochore localization in H1299 cells; test: Immunofluorescence, abnormal localization of BUBR1 in H1299 cells; assay type: cell-based; details: Fig. 3h, H1299, Vector 7, 11, 14, P=0.0008 vs Vector
Protocol: (§1) Immunofluorescence was performed as described previously. Cells were plated on cover slips in 12-well plates, left overnight before the treatment. Cells were fixed in 1% formaldehyde in culture medium for 10 min at 37 °C and permeabilized with 0.2% Triton X-100 in PBS for 10 min at room temperature. Cells were washed twice in PBS and blocked for 1 h with 5% BSA in PBS and then incubated with primary antibodies at 4 °C overnight, washed three times in PBS and incubated with secondary antibodies for 1 h at room temperature. Cell nuclei were counterstained with a 500 nM concentration of 4,6-diamidino-2-phenylindole (DAPI) (Sigma). Images were acquired by a fluorescence microscope (OLYMPUS FV-1000, Carl Zeiss LSM880 or Leica DMi8) and analyzed with software NIS-Elements AR v.5.0.1 (Nikon), FLUOVIEW v.4.2b (OLYMPUS), ZEN v.2.3 SP1 (Carl Zeiss) and Leica Application Suite X v.3.6.0.24 (Leica). Cells were quantified by investigators who were blinded to the identity of the analyzed cell.

PTBP1–BUBR1 mRNA 3′-UTR = test: RIP assay of PTBP1 and BUBR1 mRNA 3′-UTR in HEK-293T cells; assay type: cell-based; details: Fig. 4n, PTBP1+progerin, P=0.0002 vs PTBP1
Protocol: RIP and RNA pulldown assays were performed as previously described. The RIP experiment was carried out using the EZ-Magna RIP Kit (Millipore, catalog no. 17-701). The coprecipitated RNAs were extracted through Trizol reagent and detected by RT-PCR. The primer sequences for PCR, synthesized by Comate Bioscience, were as follows:
BUBR1-3′UTR_fwd (5′-[…]-3′) and BUBR1-3′UTR_rev (5′- […]-3′).

IMR90 cells [2] = test: Ki67 immunofluorescence of IMR90 cells; assay type: cell-based, human; details: Fig.1k, IMR90, Vector 67, 75, 60, P vs Vector: BUBR1 0.803, progerin 0.0018
Protocol: as §1

IMR90 cells [3] = test: SA-β-gal staining of IMR90 cells (progerin, BUBR1, shBUBR1); assay type: cell-based, human; details: Fig.1i
Protocol: SA-β-gal staining was performed as previously described. Cells were fixed in 0.5% glutaraldehyde for 15 min at room temperature, washed three times with PBS (pH 6.0) containing 1 mM MgCl2 and exposed overnight 37 °C to containing 1 mg ml^–1 5-bromo-4-chloro-3-indolyl-β-D-galactopyranoside (MCE, catalog no. HY-15934), 0.12 mM potassium ferrocyanide (Sigma, catalog no. P3289), 0.12 mM potassium ferricyanide (Sigma, catalog no. P8131) and 1 mM MgCl2 PBS buffer (pH 6.0). Cells were washed three times with H2O and observed under a microscope (OLYMPUS CKX53). SA-β-gal positive cells were quantified by investigators who were blinded to the identity of the analyzed cell.

[4] = tested on: IMR90 and HGADFN003 cells; test: Metaphase chromosome spread assay, aneuploid cells; assay type: cell-based, human; details: Fig.1p, IMR90, Vector 6, 5, 8
Protocol: For the metaphase chromosome spread assay, 1.5 × 10^6 cells were seeded in a 6 cm dish and incubated for 24 h with fresh medium. Then, colchicine was added to a final concentration of 0.2 μg ml^–1 and the cells were incubated at 37 °C for 2 h. After digestion, we collected and rinsed the cells with PBS. The cells were centrifuged at 160g for 10 min. Then, 1 M KCl was added to a final concentration of 0.075 mol l^–1 and the samples were incubated at 37 °C for 20 min. The cells were centrifuged, and the supernatant aspirated. The pellet was resuspended, and 1 ml methanol:glacial acetic acid (3:1) solution was added. The sample was rested at room temperature for 10 min. Then, the cells were centrifuged at 160g for 10 min. The supernatant was aspirated, and the pellet resuspended in 1 ml fixative for 30 min. The cells were centrifuged and the pellet was suspended in 1 ml fixative again for 30 min. The cells were centrifuged at 160g for 10 min and the supernatant aspirated. The pellet was then resuspended in a small volume of fixative (typically less than 500 μl) until the cell suspension appeared lightly milky. A small quantity of the cell suspension was held vertically in a pipette with the end about 10 cm above the slide. A single drop was released from this height onto the slide and allowed to air dry. The cells were then incubated with 500 nM of DAPI (Invitrogen) for 10 min. Slides were examined with an Olympus BX53 fluorescence microscope and the images were captured by using the Olympus IPP v.7.0 software. Aneuploid cells were quantified by investigators who were blinded to the identity of the analyzed cell.

BUBR1 = BUBR1 nuclear membrane localization in IMR90, HGADFN003 or H1299 cells; assay type: cell-based, human; details: Fig. 2c
Protocol: as §1

| Molecule | Relative percentage of the number of abnormal localization cells of BUBR1 ([1]; replicate 1) | Relative percentage of the number of abnormal localization cells of BUBR1 ([1]; replicate 2) | Relative percentage of the number of abnormal localization cells of BUBR1 ([1]; replicate 3) | PTBP1 enrichment on BUBR1-3'UTR (2-ΔΔCt) (PTBP1–BUBR1 mRNA 3′-UTR; replicate 1) | PTBP1 enrichment on BUBR1-3'UTR (2-ΔΔCt) (PTBP1–BUBR1 mRNA 3′-UTR; replicate 2) | PTBP1 enrichment on BUBR1-3'UTR (2-ΔΔCt) (PTBP1–BUBR1 mRNA 3′-UTR; replicate 3) | Relative percentage of Ki67 positive cells (IMR90 cells [2]; replicate 1) | Relative percentage of Ki67 positive cells (IMR90 cells [2]; replicate 2) | Relative percentage of Ki67 positive cells (IMR90 cells [2]; replicate 3) | Relative percentage of SA-β-gal positive cells (IMR90 cells [3]; Vector 2, 1, 2, P vs Vector: BUBR1 0.2302, progerin 0.0003, replicate 1) | Relative percentage of SA-β-gal positive cells (IMR90 cells [3]; Vector 2, 1, 2, P vs Vector: BUBR1 0.2302, progerin 0.0003, replicate 2) | Relative percentage of SA-β-gal positive cells (IMR90 cells [3]; Vector 2, 1, 2, P vs Vector: BUBR1 0.2302, progerin 0.0003, replicate 3) | Relative percentage of aneuploid cells ([4]; replicate 1) | Relative percentage of aneuploid cells ([4]; replicate 2) | Relative percentage of aneuploid cells ([4]; replicate 3) | BUBR1 nuclear membrane localization of injected cells (BUBR1; mVenus 1, 2, 2, P<0.0001, replicate 1) | BUBR1 nuclear membrane localization of injected cells (BUBR1; mVenus 1, 2, 2, P<0.0001, replicate 2) | BUBR1 nuclear membrane localization of injected cells (BUBR1; mVenus 1, 2, 2, P<0.0001, replicate 3) |
| --- | --- | --- | --- | --- | --- | --- | --- | --- | --- | --- | --- | --- | --- | --- | --- | --- | --- | --- |
| B1 | 38% | 37% | 32% | 8.488 | 7.488 | 7.699 | 27% | 31% | 35% | 40% | 50% | 39% | 42% | 38% | 46% | – | – | – |
| B2 | – | – | – | – | – | – | – | – | – | – | – | – | – | – | – | 97% | 95% | 94% |
